Target: EGFR (human) (UniProt P00533)
Test: cell-based or functional assay

cetuximab-saporin (antibody)
cell killing (MTS) IC50, titrated alone, MDA-MB-468 cells (EGFR++): 0.3 nM
